T1: Recombinant mouse FcγRI [CD64], Gln25-Pro297 with C-terminal 6-His tag (mouse, UniProt P26151 25-297)
T1 construct: range 25-297; Soluble form bought from R&D Systems; also called m-FcγRI
T1 sequence: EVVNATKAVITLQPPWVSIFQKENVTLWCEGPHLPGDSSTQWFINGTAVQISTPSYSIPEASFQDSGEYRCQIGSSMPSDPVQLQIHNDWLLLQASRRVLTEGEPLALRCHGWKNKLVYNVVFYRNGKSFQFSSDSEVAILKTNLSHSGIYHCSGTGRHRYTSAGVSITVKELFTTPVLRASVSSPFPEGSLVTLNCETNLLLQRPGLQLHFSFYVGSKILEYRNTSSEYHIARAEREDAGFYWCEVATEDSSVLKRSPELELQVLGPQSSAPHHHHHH


Key:
[1] = target: T1, Recombinant mouse FcγRI [CD64], …; experiment: SPR (Biacore X), Mab on CM4 chip, m-FcγRI as analyte, heterogeneous ligand model, major component; major component (81%), lower value
Method: (§1) 2017 RU of c515H7 Mab were immobilized using the amine coupling kit chemistry on the second flowcell (FC2) of a CM4 sensorchip. The first flowcell (FC1) activated by NHS and EDC mixture and des-activated by ethanolamine served as the reference surface to check and subtract the non specific interaction between the analyte (Fc gamma receptors) and the sensorchip matrix.
(§2) The kinetic experiments were carried out at 25° Celsius at a flow rate of 30 μl/min. The HBS-EP buffer was used either as the running buffer or for the preparation of analyte solutions. The analyte solutions were injected during 90 seconds (association phase) with a 90 seconds delay (dissociation phase). An injection of running buffer as analyte was used as a double reference. All the sensorgrams were corrected by this double reference sensorgram.
According to this model, the c515H7 Mab Fc domain may be regarded as a mixture of two components.

[2] = target: T1, Recombinant mouse FcγRI [CD64], …; experiment: SPR (Biacore X), Mab on CM4 chip, m-FcγRI as analyte, heterogeneous ligand model, minor component
Method: as §1, with “1964” for “2017”, “hz515H7VH1D76NVL2” for “c515H7”
as §2
After each injection of the analyte, the sensorchip was regenerated by injection of either 20 mM NaOH solution after h-FcγRI and m-FcγRIII or 10 mM NaOH after h-FcγRIIIA and m-FcγRI.

| Binder | Kd [1] | Kd [2] |
| --- | --- | --- |
| chimeric antibody c515H7 (antibody, human IgG1, kappa, Human IgG1/kappa constant domains; also called c515H7 Mab; chimeric 515H7) heavy: not shown light: DIVMSQSPSSLAVSAGEKVTMSCKSSQSLFNSRTRKNYLAWYQQKPGQSPKLLIYWASARDSGVPARFTGSGSETYFTLTISRVQAEDLAVYYCMQSFNLRTFGGGTKLEIKRTVAAPSVFIFPPSDEQLKSGTASVVCLLNNFYPREAKVQWKVDNALQSGNSQESVTEQDSKDSTYSLSSTLTLSKADYEKHKVYACEVTHQGLSSPVTKSFNRGEC | ~380 nM |  |
| humanized antibody Hz515H7 VH1 D76N VL2 (antibody, human IgG1, kappa, IgG1/kappa; also called hz515H7VL2; hz515H7-1) heavy: not shown light: DIVMTQSPSSLAVSLGERATMSCKSSQSLFNSRTRKNYLAWYQQKPGQSPKLLIYWASARDSGVPARFTGSGSETYFTLTISRVQAEDLAVYYCMQSFNLRTFGQGTKVEIKRTVAAPSVFIFPPSDEQLKSGTASVVCLLNNFYPREAKVQWKVDNALQSGNSQESVTEQDSKDSTYSLSSTLTLSKADYEKHKVYACEVTHQGLSSPVTKSFNRGEC |  | ~90 nM |
